Key:
[1] = molecular target: wild-type eNOS (construct expressed in COS cells) (UniProt P29474); experiment: cell-based or functional assay
[2] = molecular target: endothelial nitric oxide synthase (eNOS), endogenous, human umbilical vein endothelial cells (HUVECs) (human) (UniProt P29474); experiment: eNOS IP, phospho-Ser473-Akt immunoblot, HUVEC lysates
[3] = molecular target: S1177A eNOS mutant (construct expressed in COS cells) (UniProt P29474); experiment: cell-based or functional assay
Chain of S1177A eNOS mutant (construct expressed in COS cells) (P29474 2-1203 S1177A limits assumed): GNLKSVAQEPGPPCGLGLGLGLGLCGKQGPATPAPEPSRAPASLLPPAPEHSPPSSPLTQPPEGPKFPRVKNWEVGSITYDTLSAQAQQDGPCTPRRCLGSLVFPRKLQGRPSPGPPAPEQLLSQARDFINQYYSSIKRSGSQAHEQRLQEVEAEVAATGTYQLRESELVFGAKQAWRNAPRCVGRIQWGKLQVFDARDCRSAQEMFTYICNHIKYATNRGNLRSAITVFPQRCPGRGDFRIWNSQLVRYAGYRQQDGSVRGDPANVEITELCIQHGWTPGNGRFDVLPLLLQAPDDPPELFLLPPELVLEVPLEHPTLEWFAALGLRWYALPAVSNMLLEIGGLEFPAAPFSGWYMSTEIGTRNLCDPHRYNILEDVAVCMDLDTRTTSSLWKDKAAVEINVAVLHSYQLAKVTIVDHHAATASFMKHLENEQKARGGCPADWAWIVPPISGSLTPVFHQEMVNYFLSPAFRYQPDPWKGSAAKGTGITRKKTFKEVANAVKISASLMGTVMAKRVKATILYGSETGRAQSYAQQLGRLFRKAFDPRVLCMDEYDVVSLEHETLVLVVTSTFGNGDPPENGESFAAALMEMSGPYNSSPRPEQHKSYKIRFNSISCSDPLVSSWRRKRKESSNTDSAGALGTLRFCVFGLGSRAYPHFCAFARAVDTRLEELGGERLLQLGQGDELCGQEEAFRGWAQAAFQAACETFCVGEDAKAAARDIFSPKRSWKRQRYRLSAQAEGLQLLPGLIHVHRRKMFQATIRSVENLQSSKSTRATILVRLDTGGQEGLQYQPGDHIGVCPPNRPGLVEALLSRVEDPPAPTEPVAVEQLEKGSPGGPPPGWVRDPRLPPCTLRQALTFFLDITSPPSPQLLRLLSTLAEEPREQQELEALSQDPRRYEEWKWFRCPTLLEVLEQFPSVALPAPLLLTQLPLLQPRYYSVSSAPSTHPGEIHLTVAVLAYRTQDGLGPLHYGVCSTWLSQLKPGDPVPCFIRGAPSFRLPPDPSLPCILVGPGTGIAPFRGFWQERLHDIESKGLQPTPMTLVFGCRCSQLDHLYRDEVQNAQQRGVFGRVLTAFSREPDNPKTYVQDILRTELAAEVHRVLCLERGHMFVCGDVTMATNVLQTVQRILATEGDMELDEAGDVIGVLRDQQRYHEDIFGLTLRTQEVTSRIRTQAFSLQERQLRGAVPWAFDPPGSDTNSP

Chain of wild-type eNOS (construct expressed in COS cells) (P29474 2-1203 limits assumed): as the sequence (P29474 2-1203 S1177A limits assumed) above, with A1176S counted along it
Chain of endothelial nitric oxide synthase (eNOS), endogenous, human umbilical vein endothelial cells (HUVECs) (human) (P29474 2-1203 limits assumed): as the sequence (P29474 2-1203 S1177A limits assumed) above, with A1176S counted along it

Row | Substance | increase in nitrite production, co-transfected COS cells [1] [%] | increase over basal level of nitrite production, COS cells co-transfected with WT-eNOS, active Akt and also recombinant hsp90 [1] [%] | fold increase of phospho-Akt enrichment in the eNOS IP, statin plus recombinant hsp90 vs statin alone [2] [fold] | increase in nitrite production, co-transfected COS cells [3] [%]
1 | Myc-tagged active Akt (T308D/S473D) (from UniProt P31749 1-480) (enzyme) | 64 | 152 | – | –
2 | phospho-Ser473-Akt, endogenous, human umbilical vein endothelial cells (HUVECs) (from UniProt P31749 1-480) (enzyme) | – | – | > 3 | –
3 | recombinant hsp90 (expressed from hsp90 cDNA, gift of Dr W. C. Sessa) | 49 | – | – | 40
